Results reported in article PMC12900691 (2025).

Experiments:
CHD4 ABM = CHD4 ABM (Homo sapiens, UniProt Q14839); test: ITC
[1] = biological target: T1, histone H3K9me3 peptide H3K9me3 peptide (Homo sapiens, UniProt P68431, K9me3); test: ITC
T1 chain: ARTKQTARKSTGGKA

Sequence of CHD4 ABM (Q14839 100-140): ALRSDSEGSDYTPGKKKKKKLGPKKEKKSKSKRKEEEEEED

B1: ATRX ADD (protein)
chain: NLKKRGEDGLHGIVSCTACGQQVNHFQKDSIYRHPSLQVLICKNCFKYYMSDDISRDSDGMDEQCRWCAEGGNLICCDFCHNAFCKKCILRNLGRKELSTIMDENNQWYCYICHPEPLLDLVTACNSVFENLEQLLQQNKKKIK
**Q.** With B1 as the binder, how does the Kd (CHD4 ABM) read?
**A.** Its Kd is ~46 µM.

**Q.** And the Kd [1]?
**A.** The Kd was ~4 µM.
